By stoichiometry N is commonly meant the number of molecules, sites or subunits per partner or assembly.

These results are taken from PMC7587441, “Plasmodium falciparum Apicomplexan-Specific Glucosamine-6-Phosphate N-Acetyltransferase Is Key for Amino Sugar Metabolism and Asexual Blood Stage Development” (mBio, 2020).

This test deals with Cryptosporidium parvum glucosamine-6-phosphate N-acetyltransferase (CpGNA1) (Cryptosporidium parvum). The experiment in a line: crystal structure; CpGNA1 (1.5 mg/ml) cocrystallised with 10 mM acetyl-CoA, soaked with 50 mM acetyl-CoA and 50 mM Glc6P; space group P2(1)2(1)2(1), two monomers in the asymmetric unit; 1.95 Å.

With “Cryptosporidium parvum glucosamine-6-phosphate N-acetyltransferase (CpGNA1) (enzyme)”, the stoichiometry N amounted to 2.
